These results are taken from the supplement of paper PMC5998384.

Data set [1] relates to HeLa Kyoto. Description: solubility in G1/S (NP-40 vs SDS abundance) (log2 ratio); higher = more soluble. Conditions: cell cycle stage: G1/S.
For data set [2], the system named is HeLa Kyoto. Description: thermal stability score vs G1/S (z-score of summed log2 fold changes over temperatures); higher = more thermally stable than in G1/S.
In data set [3] the test system is HeLa Kyoto. Description: melting temperature (median over replicates), in situ; higher = more thermally stable.
In data set [4] the test system is HeLa Kyoto. The data set can be described thus: solubility change mitosis vs G1/S (difference of NP-40 vs SDS log2 ratios) (log2 ratio difference); higher = more soluble in mitosis.
Setting [5] is: cell cycle stage: early G1 (4.5 h after nocodazole release).
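Wherever melting temperature (median over replicates), in situ is given: HeLa Kyoto cells synchronized by double thymidine or nocodazole block, proteins quantified by TMT10plex mass spectrometry, three independent biological replicates.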
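Wherever solubility change mitosis vs G1/S (difference of NP-40 vs SDS log2 ratios) is given: synchronized HeLa Kyoto cells (double thymidine block for G1/S, nocodazole release for mitosis), protein amounts in NP-40 versus SDS lysates quantified by mass spectrometry, three biological replicates.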
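Wherever solubility in G1/S (NP-40 vs SDS abundance) is given: HeLa Kyoto cells arrested at G1/S by double thymidine block, proteins quantified by TMT10plex mass spectrometry in mild NP-40 versus SDS extracts, three biological replicates.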
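Wherever thermal stability score vs G1/S (z-score of summed log2 fold changes over temperatures) is given: synchronized HeLa Kyoto cells, proteins quantified by TMT10plex mass spectrometry, three biological replicates, mitosis taken 0.5 h after nocodazole release, G1/S directly after double thymidine block.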

With “MPAVASVPKELYLSSSLKDLNKKTEVKPEKISTKSYVHSALKIFKTAEECRLDRDEERAYVLYMKYVTVYNLIKKRPDFKQQQDYFHSILGPGNIKKAVEEAERLSESLKLRYEEAEVRKKLEEKDRQEEAQRLQQKRQETGREDGGTLAKGSLENVLDSKDKTQKSNGEKNEKCETKEKGAITAKELYTMMTDKNISLIIMDARRMQDYQDSCILHSLSVPEEAISPGVTASWIEAHLPDDSKDTWKKRGNVEYVVLLDWFSSAKDLQIGTTLRSLKDALFKWESKTVLRNEPLVLEGGYENWLLCYPQYTTNAKVTPPPRRQNEEVSISLDFTYPSLEESIPSKPAAQTPPASIEVDENIELISGQNERMGPLNISTPVEPVAASKSDVSPIIQPVPSIKNVPQIDRTKKPAVKLPEEHRIKSESTNHEQQSPQSGKVIPDRSTKPVVFSPTLMLTDEEKARIHAETALLMEKNKQEKELRERQQEEQKEKLRKEEQEQKAKKKQEAEENEITEKQQKAKEEMEKKESEQAKKEDKETSAKRGKEITGVKRQSKSEHETSDAKKSVEDRGKRCPTPEIQKKSTGDVPHTSVTGDSGSGKPFKIKGQPESGILRTGTFREDTDDTERNKAQREPLTRARSEEMGRIVPGLPSGWAKFLDPITGTFRYYHSPTNTVHMYPPEMAPSSAPPSTPPTHKAKPQIPAERDREPSKLKRSYSSPDITQAIQEEEKRKPTVTPTVNRENKPTCYPKAEISRLSASQIRNLNPVFGGSGPALTGLRNLGNTCYMNSILQCLCNAPHLADYFNRNCYQDDINRSNLLGHKGEVAEEFGIIMKALWTGQYRYISPKDFKITIGKINDQFAGYSQQDSQELLLFLMDGLHEDLNKADNRKRYKEENNDHLDDFKAAEHAWQKHKQLNESIIVALFQGQFKSTVQCLTCHKKSRTFEAFMYLSLPLASTSKCTLQDCLRLFSKEEKLTDNNRFYCSHCRARRDSLKKIEIWKLPPVLLVHLKRFSYDGRWKQKLQTSVDFPLENLDLSQYVIGPKNNLKKYNLFSVSNHYGGLDGGHYTAYCKNAARQRWFKFDDHEVSDISVSSVKSSAAYILFYTSLGPRVTDVAT [USP8]”, the “solubility in G1/S (log2)” value with HeLa Kyoto [1] was -0.121. The thermal stability score with HeLa Kyoto [2] (setting [5]) is -0.07; in the data set with HeLa Kyoto [2] (cell cycle stage: mitosis), -0.00341. The melting temperature was determined as 49.2 °C in the data set with HeLa Kyoto [3] (cell cycle stage: G1/S) and 49.3 °C in the data set with HeLa Kyoto [3] (cell cycle stage: mitosis). Besides, the “solubility change mitosis (log2)” value in the data set on HeLa Kyoto [4] was -0.0263.

Consider “MPAVLGFEGSANKIGVGVVRDGKVLANPRRTYVTPPGTGFLPGDTARHHRAVILDLLQEALTESGLTSQDIDCIAYTKGPGMGAPLVSVAVVARTVAQLWNKPLVGVNHCIGHIEMGRLITGATSPTVLYVSGGNTQVIAYSEHRYRIFGETIDIAVGNCLDRFARVLKISNDPSPGYNIEQMAKRGKKLVELPYTVKGMDVSFSGILSFIEDVAHRMLATGECTPEDLCFSLQETVFAMLVEITERAMAHCGSQEALIVGGVGCNVRLQEMMATMCQERGARLFATDERFCIDNGAMIAQAGWEMFRAGHRTPLSDSGVTQRYRTDEVEVTWRD [OSGEP]”, for which, in the data set on HeLa Kyoto [1], the “solubility in G1/S (log2)” value is 0.0103. In addition, the figures for the thermal stability score with HeLa Kyoto [2] (setting [5]) and in the data set on HeLa Kyoto [2] (cell cycle stage: mitosis) were 0.00035 and -1.39, respectively. Besides, the figures for the melting temperature in the data set with HeLa Kyoto [3] (cell cycle stage: G1/S) and with HeLa Kyoto [3] (cell cycle stage: mitosis) were 55.5 °C and 55.4 °C, respectively. Besides, the “solubility change mitosis (log2)” value in the data set with HeLa Kyoto [4] was -0.136.

Take “MPAVSLPPKENALFKRILRCYEHKQYRNGLKFCKQILSNPKFAEHGETLAMKGLTLNCLGKKEEAYELVRRGLRNDLKSHVCWHVYGLLQRSDKKYDEAIKCYRNALKWDKDNLQILRDLSLLQIQMRDLEGYRETRYQLLQLRPAQRASWIGYAIAYHLLEDYEMAAKILEEFRKTQQTSPDKVDYEYSELLLYQNQVLREAGLYREALEHLCTYEKQICDKLAVEETKGELLLQLCRLEDAADVYRGLQERNPENWAYYKGLEKALKPANMLERLKIYEEAWTKYPRGLVPRRLPLNFLSGEKFKECLDKFLRMNFSKGCPPVFNTLRSLYKDKEKVAIIEELVVGYETSLKSCRLFNPNDDGKEEPPTTLLWVQYYLAQHYDKIGQPSIALEYINTAIESTPTLIELFLVKAKIYKHAGNIKEAARWMDEAQALDTADRFINSKCAKYMLKANLIKEAEEMCSKFTREGTSAVENLNEMQCMWFQTECAQAYKAMNKFGEALKKCHEIERHFIEITDDQFDFHTYCMRKITLRSYVDLLKLEDVLRQHPFYFKAARIAIEIYLKLHDNPLTDENKEHEADTANMSDKELKKLRNKQRRAQKKAQIEEEKKNAEKEKQQRNQKKKKDDDDEEIGGPKEELIPEKLAKVETPLEEAIKFLTPLKNLVKNKIETHLFAFEIYFRKEKFLLMLQSVKRAFAIDSSHPWLHECMIRLFNTAVCESKDLSDTVRTVLKQEMNRLFGATNPKNFNETFLKRNSDSLPHRLSAAKMVYYLDPSSQKRAIELATTLDESLTNRNLQTCMEVLEALYDGSLGDCKEAAEIYRANCHKLFPYALAFMPPGYEEDMKITVNGDSSAEAEELANEI [NAA15]”: in the data set on HeLa Kyoto [1], the “solubility in G1/S (log2)” value is -0.262. Further, the thermal stability score in the data set on HeLa Kyoto [2] (setting [5]) is 0.92; in the data set with HeLa Kyoto [2] (cell cycle stage: mitosis), -0.18. Besides, the values for the melting temperature with HeLa Kyoto [3] (cell cycle stage: G1/S) and with HeLa Kyoto [3] (cell cycle stage: mitosis) were 53.9 °C and 52.5 °C, respectively. Further, the “solubility change mitosis (log2)” value with HeLa Kyoto [4] is -0.124.

Regarding “MPFPVTTQGSQQTQPPQKHYGITSPISLAAPKETDCVLTQKLIETLKPFGVFEEEEELQRRILILGKLNNLVKEWIREISESKNLPQSVIENVGGKIFTFGSYRLGVHTKGADIDALCVAPRHVDRSDFFTSFYDKLKLQEEVKDLRAVEEAFVPVIKLCFDGIEIDILFARLALQTIPEDLDLRDDSLLKNLDIRCIRSLNGCRVTDEILHLVPNIDNFRLTLRAIKLWAKRHNIYSNILGFLGGVSWAMLVARTCQLYPNAIASTLVHKFFLVFSKWEWPNPVLLKQPEECNLNLPVWDPRVNPSDRYHLMPIITPAYPQQNSTYNVSVSTRMVMVEEFKQGLAITDEILLSKAEWSKLFEAPNFFQKYKHYIVLLASAPTEKQRLEWVGLVESKIRILVGSLEKNEFITLAHVNPQSFPAPKENPDKEEFRTMWVIGLVFKKTENSENLSVDLTYDIQSFTDTVYRQAINSKMFEVDMKIAAMHVKRKQLHQLLPNHVLQKKKKHSTEGVKLTALNDSSLDLSMDSDNSMSVPSPTSATKTSPLNSSGSSQGRNSPAPAVTAASVTNIQATEVSVPQVNSSESSGGTSSESIPQTATQPAISPPPKPTVSRVVSSTRLVNPPPRSSGNAATSGNAATKIPTPIVGVKRTSSPHKEESPKKTKTEEDETSEDANCLALSGHDKTEAKEQLDTETSTTQSETIQTAASLLASQKTSSTDLSDIPALPANPIPVIKNSIKLRLNR [PAPOLA]”, in the data set on HeLa Kyoto [1], the “solubility in G1/S (log2)” value stood at 0.109. Also, the thermal stability score in the data set on HeLa Kyoto [2] (setting [5]) worked out at 1.44; in the data set with HeLa Kyoto [2] (cell cycle stage: mitosis), 1.67. Further, the melting temperature in the data set with HeLa Kyoto [3] (cell cycle stage: G1/S) turned out to be 51.6 °C; in the data set on HeLa Kyoto [3] (cell cycle stage: mitosis), 52 °C. In addition, the “solubility change mitosis (log2)” value with HeLa Kyoto [4] was -0.238.
